Each block holds one binder with its values, some of them ahead of it. No end group written: not given here.
How the values were obtained:
[1] = target: T1, VE-cadherin fragment, P33151; assay: plate assay read as absorbance at 450 nm, VE-cad(1-5) concentration varied (0-0.5 µM); format not described in the text
T1 chain: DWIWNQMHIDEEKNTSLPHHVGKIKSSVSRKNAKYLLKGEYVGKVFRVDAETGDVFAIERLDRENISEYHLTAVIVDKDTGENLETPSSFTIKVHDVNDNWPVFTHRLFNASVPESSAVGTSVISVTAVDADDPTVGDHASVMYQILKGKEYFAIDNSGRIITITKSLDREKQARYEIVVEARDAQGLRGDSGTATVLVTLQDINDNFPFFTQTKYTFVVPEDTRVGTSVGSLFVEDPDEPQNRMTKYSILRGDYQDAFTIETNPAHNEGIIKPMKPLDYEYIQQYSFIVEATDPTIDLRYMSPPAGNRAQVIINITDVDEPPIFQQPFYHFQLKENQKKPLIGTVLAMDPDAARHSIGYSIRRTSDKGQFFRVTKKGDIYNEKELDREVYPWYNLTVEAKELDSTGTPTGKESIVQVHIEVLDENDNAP

[2] = target: T2, VE-cadherin fragment (UniProt P33151 48-477, limits assumed); assay: SPR (BIAcore), VE-cadherin fragment immobilized; monomeric peptide
T2 construct: also called VE-caherin; immobilized VE-cadherin fragment
T2 sequence (looked up): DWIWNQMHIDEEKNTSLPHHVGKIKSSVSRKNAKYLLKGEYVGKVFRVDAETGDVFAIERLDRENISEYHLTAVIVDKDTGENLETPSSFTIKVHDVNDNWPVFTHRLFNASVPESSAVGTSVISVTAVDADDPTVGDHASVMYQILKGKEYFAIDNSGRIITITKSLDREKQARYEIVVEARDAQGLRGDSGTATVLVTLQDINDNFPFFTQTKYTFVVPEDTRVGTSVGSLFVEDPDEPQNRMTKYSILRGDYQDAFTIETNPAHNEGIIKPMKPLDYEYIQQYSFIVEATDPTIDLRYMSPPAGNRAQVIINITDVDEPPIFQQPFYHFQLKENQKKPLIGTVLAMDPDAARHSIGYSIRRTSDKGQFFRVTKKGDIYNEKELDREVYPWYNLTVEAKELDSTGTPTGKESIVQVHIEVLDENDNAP
Experimental: (§1) To test binding activities of fibrin beta chain derived peptides of the invention to VE-caherin, surface plasmon resonance (SPR) methods are, for example, used. SPR experiments are performed using, for example, a BIAcore 3000 biosensor (BIAcore AB, Uppsala, Sweden), which can be used to measure the association/dissociation of peptides or proteins in real-time (see, for example, Karlsson, R., and Falt, A. J. Immunol. Methods (1997) 200, 121-133; Hall, D. Anal. Biochem. (2001) 288, 109-125; see also Gorlatov et al. Biochemistry (2002) 41, 4107-4116 for other VE-cadherin binding assays including, for example, SPR IAsys Analysis based assays and ELISA based assays). An exemplary method is described in the following passage. VE-cadherin fragment is covalently coupled via epsilon-amino groups to the activated surface of a CM5 biosensor chip by the procedure described by, for example, Karlsson, R., and Falt, A. (J. Immunol. Methods (1997) 200, 121-133; see also Gorlatov et al. Biochemistry (2002) 41, 4107-4116). […] Samples comprising, for example, fibrin beta chain derived peptides β15-42, β15-64, and (β15-66)2, at different concentrations are injected in duplicate in at least three separate experiments and the association/dissociation between the immobilized and the added peptides is monitored as the change in the SPR response. […]

[3] = target: T2, VE-cadherin fragment; assay: SPR (BIAcore), ratio of Kd values, reference β15-42
Experimental: as §1

[4] = target: T2, VE-cadherin fragment; assay: not stated on the sheet; the legend calls it the dissociation constant for the interaction with VE-cadherin
[5] = target: T2, VE-cadherin fragment; assay: SPR (BIAcore), VE-cadherin fragment immobilized, peptide added up to 200 nM; dimeric peptide, added up to 200 nM
Experimental: as §1

[6] = target: T2, VE-cadherin fragment; assay: not stated on the sheet; the legend calls it the dissociation constant for the interaction with VE-cadherin; remark: listed apart in the source

Binder: GHRPLDKKREEAPSLRPAPPPISYCG (also: homodimer linked through added Cys25) [(β15-40)2 dimer peptide]
- EC50 (read off the curve) [1]: 40 nM

B2: (β15-44)2 dimer peptide (peptide)
peptide: GHRPLDKKREEAPSLRPAPPPISGGGYRCG
modifications: also: homodimer, Cys43-Cys43 disulfide
notes: Synthetic homodimer of two identical 30-residue chains, linked by a Cys43-Cys43 disulfide bond; also called dimeric (β15-44)2
- Kd [6]: 21 nM

Other lines, results leading:

- Kd [2]: 252000 nM
Binder: GHRPLDKKREEAPSLRPAPPPISGGGYR (also called monomeric β15-42) [β15-42 monomeric peptide]

- fold increase in affinity against β15-42 [3]: 3600 fold
- Kd [4]: 27 nM
- Kd [5]: 70 nM
B1: (β15-66)2 dimer peptide (peptide)
peptide: GHRPLDKKREEAPSLRPAPPPISGGGYRARPAKAAATQKKVERKAPDAGGCG
modifications: also: homodimer, Cys65-Cys65 disulfide
notes: Homodimer of two β15-66 chains, disulfide-linked via Cys65; Gly66 is not natural; also called dimeric (β15-66)2
